One block for each molecule: values may come before it.
How the values were obtained:
Experiment in all cases: SPR
[1] = target: Anti-HER2 IgA2m2 Polymer Aglycosylated (human) (UniProt P01591)
[2] = target: anti-mIL-13 IgA2m1 Monomer (human)
[3] = target: anti-mIL-13 IgA1 Dimer (human) (UniProt P01591)
[4] = target: anti-mIL-13 IgA2m2 Dimer (human) (UniProt P01591)
[5] = target: anti-mIL-13 IgA2m2 Tetramer (human) (UniProt P01591)
[6] = target: Anti-IL-13 IgG1 ΔK-C242 IgA2m1 Fc Dimer (human) (UniProt P01591)
[7] = target: anti-mIL-13 IgA2m1 P221R Monomer (human)
[8] = target: Anti-IL-13 IgG1 ΔK-P221 IgA2m1 Fc Dimer (human) (UniProt P01591)
[9] = target: anti-mIL-13 IgA2m1 Dimer (human) (UniProt P01591)
[10] = target: anti-mIL-13 IgA2m1 P221R Dimer (human) (UniProt P01591)
[11] = target: anti-mIL-13 IgA2m2 Monomer (human)
[12] = target: anti-mIL-13 IgA1 Monomer (human)
[13] = target: anti-mIL-13 human IgG1 (human)

Molecule: mouse polymeric immunoglobulin receptor (from UniProt O70570)
Kd [1]: 0.55 nM

Molecule: human polymeric immunoglobulin receptor (from UniProt P01833)
Kd [3]: 8.8 nM
Kd [4]: 13.9 nM
Kd [5]: 1.93 nM
Kd [1]: 0.72 nM
Kd [6]: 4.41 nM
Kd [8]: 7.67 nM
Kd [9]: 5.05 nM
Kd [10]: 15.5 nM

Molecule: human FcRn co-expressed with human beta-2 microglobulin (from UniProt P55899;P61769) (complex)
Kd [13]: 9.8 µM
Kd [6]: 9900 nM
Kd [8]: 8400 nM

B1: mouse polymeric immunoglobulin receptor (receptor)
chain: KSPIFGPQEVSSIEGDSVSITCYYPDTSVNRHTRKYWCRQGASGMCTTLISSNGYLSKEYSGRANLINFPENNTFVINIEQLTQDDTGSYKCGLGTSNRGLSFDVSLEVSQVPELPSDTHVYTKDIGRNVTIECPFKRENAPSKKSLCKKTNQSCELVIDSTEKVNPSYIGRAKLFMKGTDLTVFYVNISHLTHNDAGLYICQAGEGPSADKKNVDLQVLAPEPELLYKDLRSSVTFECDLGREVANEAKYLCRMNKETCDVIINTLGKRDPDFEGRILITPKDDNGRFSVLITGLRKEDAGHYQCGAHSSGLPQEGWPIQTWQLFVNEESTIPNRRSVVKGVTGGSVAIACPYNPKESSSLKYWCRWEGDGNGHCPVLVGTQAQVQEEYEGRLALFDQPGNGTYTVILNQLTTEDAGFYWCLTNGDSRWRTTIELQVAEATREPNLEVTPQNATAVLGETFTVSCHYPCKFYSQEKYWCKWSNKGCHILPSHDEGARQSSVSCDQSSQLVSMTLNPVSKEDEGWYWCGVKQGQTYGETTAIYIAVEERTRGSSHVNPTDANARAKVALEEEVVDSSISEKENKAIPNPGPFANEREIQNVGDQAQENRASGDAGSADGQSRSSSSK
Kd [3]: 2.66 nM
Kd [4]: 2.45 nM
Kd [5]: 0.69 nM
Kd [6]: 3.32 nM
Kd [8]: 3.32 nM
Kd [9]: 2.54 nM
Kd [10]: 5.59 nM

Further lines, results first:

Kd [2]: 429 nM
Kd [3]: 369 nM
Kd [4]: 597 nM
Kd [5]: 533 nM
Kd [6]: 938 nM
Kd [7]: 443 nM
Kd [8]: 1070 nM
Kd [9]: 499 nM
Kd [10]: 462 nM
Kd [11]: 455 nM
Kd [12]: 425 nM
Molecule: human Fc alpha receptor 1 (from UniProt P24071)

Kd [13]: 7.8 µM
Kd [6]: 7400 nM
Kd [8]: 6800 nM
Molecule: mouse FcRn co-expressed with mouse beta-2 microglobulin (from UniProt Q61559;P01887) (complex)

Source: paper PMC6748581
